The text below walks through data of the RNAGym collection of RNA variant scans (doi:10.7554/elife.90254).

To fix the notation:
B1: LINE1-full (parent)
chain: UACGUAGGUGGUUUUCCCCUGAUAGUGCUAAGGGGGCCUGGAAGUUUGGACUGGGCAGAGCUCAACACAGCGUGGCAAAGUGGCUGUGGCUAGACUGCCUCUCUGGAUUCCUCGUCACUCAGCAGGGCAUCUCUGAGAGAAAUGCC

The variants in the series derive from B1. Kind of series: self-cleavage, relative activity (ratio to wild type); higher = more cleavage; in vitro, sequencing; the parent is a self-cleaving ribozyme.
Consider UACGUAGGUGGGUUUCCCCUGAUAGUGCUAAGGGGGCCUGGAAGUUUGGACUGGGCAGAGCUCAACACAGCGUGGCAAAGUGGCUGUGGCUAGACUGCCUCUCUGGAUUCCUCGUCACUCAGCAGGGCCUCUCUGAGAGAAAUGCC [U12G A129C], for which the self-cleavage came out at 1.1.

For UACGUAGGUGGGUUUCCCCUGAUAGUGCUAAGGGGGCCUGGAAGUUUGGACUGGGCAGAGCUCAACACAGCGUGGCAAAGUGGCUGUGGCUAGACUGCCUCUCUGGAUUCCUCGUCACUCAGCAGGGCGUCUCUGAGAGAAAUGCC [U12G A129G], the self-cleavage was 1.14.

UACGUAGGUGGGUUUCCCCUGAUAGUGCUAAGGGGGCCUGGAAGUUUGGACUGGGCAGAGCUCAACACAGCGUGGCAAAGUGGCUGUGGCUAGACUGCCUCUCUGGUUUCCUCGUCACUCAGCAGGGCAUCUCUGAGAGAAAUGCC [U12G A107U]: the self-cleavage amounted to 0.98.

For the variant UACGUAGGUGGGUUUCCCCUGAUAGUGCUAAGGGGGCCUGGAAGUUUGGACUGGGCAGAGCUCAACACAGCGUGGCAAAGUGGCUGUGGCUAGACUGCCUCUCUGGGUUCCUCGUCACUCAGCAGGGCAUCUCUGAGAGAAAUGCC [U12G A107G], the self-cleavage was determined as 1.58.

With UACGUAGGUGGGUUUCCCCUGAUAGUGCUAAGGGGGCCUGGAAGUUUGGACUGGGCAGAGCUCAACACUGCGUGGCAAAGUGGCUGUGGCUAGACUGCCUCUCUGGAUUCCUCGUCACUCAGCAGGGCAUCUCUGAGAGAAAUGCC [U12G A69U], the self-cleavage stood at 0.08.

As to UACGUAGGUGGGUUUCCCCUGAUAGUGCUAAGGGGGCCUGGAAGUUUGGUCUGGGCAGAGCUCAACACAGCGUGGCAAAGUGGCUGUGGCUAGACUGCCUCUCUGGAUUCCUCGUCACUCAGCAGGGCAUCUCUGAGAGAAAUGCC [U12G A50U], the self-cleavage was found to be 1.16.

Consider UACGUAGGUGGGUUUCCCCUGAUAGUGCUAAGGGGGCCUGGAAGUUUGGACUGGGCAGAGCUCAACACAGCGUGGCAAAGUGGCUGUGGCUAGACUGCCUCUCUGGAUUCCUCGUCACUCAGCAGGGCAUCUCUGAGAGAGAUGCC [U12G A141G], for which the self-cleavage was determined as 1.22.

Regarding UACGUAGGUGGGUUUCCCCUGAUAGUGCUAAGGGGGCCUGGAAGUUUGGACUGGGCAGAGCUCAACACAGCGUGGCAAAGUGGUUGUGGCUAGACUGCCUCUCUGGAUUCCUCGUCACUCAGCAGGGCAUCUCUGAGAGAAAUGCC [U12G C84U], the self-cleavage worked out at 0.2.

On to UACGUAGGUGGGUUUCCCUUGAUAGUGCUAAGGGGGCCUGGAAGUUUGGACUGGGCAGAGCUCAACACAGCGUGGCAAAGUGGCUGUGGCUAGACUGCCUCUCUGGAUUCCUCGUCACUCAGCAGGGCAUCUCUGAGAGAAAUGCC [U12G C19U], for which the self-cleavage was found to be 1.09.

As to UACGUAGGUGGGUUUCCCCUGAUAGUGCUAAGGGGGCCUGGAAGUUUGGACUGGGCAGAGCUCAACACAGCGUGGCAAAGUGGCUGUGGCUGGACUGCCUCUCUGGAUUCCUCGUCACUCAGCAGGGCAUCUCUGAGAGAAAUGCC [U12G A92G], the self-cleavage is 0.21.

Consider UACGUAGGUGGGUUUCCCCUGAUAGUGCUAAGGGGGCCUGGAAGUUUGGACUGGGCAGAGCUCAACACAGCGUGGCAAAGUGGCUGUGGCUUGACUGCCUCUCUGGAUUCCUCGUCACUCAGCAGGGCAUCUCUGAGAGAAAUGCC [U12G A92U], for which the self-cleavage was determined as 0.62.

As for UACGUAGGUGGGUUUCCCCUGAUAGUGCUAAGGGGGCCUGGAAGUUUGGACUGGGUAGAGCUCAACACAGCGUGGCAAAGUGGCUGUGGCUAGACUGCCUCUCUGGAUUCCUCGUCACUCAGCAGGGCAUCUCUGAGAGAAAUGCC [U12G C56U], the self-cleavage was found to be 0.22.

For the variant UACGUAGGUGGGUUUCCCCUGAUAGUGCUAAGGGGGCCUGGAAGUUUGGACUGGGCAGAGCUCAACACAGCGUGGCAAAAUGGCUGUGGCUAGACUGCCUCUCUGGAUUCCUCGUCACUCAGCAGGGCAUCUCUGAGAGAAAUGCC [U12G G80A], the self-cleavage came out at 1.64.

UACGUAGGUGGGUUUCCCCUGAUAGUGCUAAGGGGGCCUGGAAGUUUGGACUGGGCAGAGCUCAACACAGCGUGGCAAGGUGGCUGUGGCUAGACUGCCUCUCUGGAUUCCUCGUCACUCAGCAGGGCAUCUCUGAGAGAAAUGCC [U12G A79G]: the self-cleavage came to 1.25.

As to UACGUAGGUGGGUUUCCCCUGAUAGUGCUAAGGGGGCCUGGAAGUUUGGACUGGGCAGAGCUCAACACAGCGUGGCAAAGUGGCUGUGGCUAGACUGUCUCUCUGGAUUCCUCGUCACUCAGCAGGGCAUCUCUGAGAGAAAUGCC [U12G C98U], the self-cleavage worked out at 0.41.

Turning to UACGUAGGUGGGUUUCCCCUGAUAGUGCUAAGGGGGCCUGGAAGUUUGGACUGGGCAGAGCUCAACACAGCGUGGCAAAGUGGCUGUGGCUAGACUGCCUCUCUGGAUUCCUCGUCACUCAGCAGGGCAUCUCUGAGAGAAGUGCC [U12G A142G], the self-cleavage is 0.83.

In the case of UACGUAGGUGGGUUUCCCCUGAUAGUGCUAAGGGGGCCUGGAAGUUUGGACUGGGCAGAGCUCAACACAGCGUGGCAAAGUGGCUGUGGCUAGACUGCCUCUCUGGAUUCCUCGUCACUCAGCAGGGCAUCUCUGAGAGAACUGCC [U12G A142C], the self-cleavage was determined as 0.93.

As for UACGUAGGUGGGUUUCCCCUGAUAGUGCUAAGAGGGCCUGGAAGUUUGGACUGGGCAGAGCUCAACACAGCGUGGCAAAGUGGCUGUGGCUAGACUGCCUCUCUGGAUUCCUCGUCACUCAGCAGGGCAUCUCUGAGAGAAAUGCC [U12G G33A], the self-cleavage turned out to be 1.47.

For the variant UACGUAGGUGGGUUUCCCCUGAUAGUGCUAAGGGAGCCUGGAAGUUUGGACUGGGCAGAGCUCAACACAGCGUGGCAAAGUGGCUGUGGCUAGACUGCCUCUCUGGAUUCCUCGUCACUCAGCAGGGCAUCUCUGAGAGAAAUGCC [U12G G35A], the self-cleavage turned out to be 0.89.

Turning to UACGUAGGUGGGUUUCCCCUGAUAGUGCUAAGGGGGCCUGGAAGUUUGGACUGGGCAGAGCUCAACACAGCGUGGCAAAGUGGCUGUGGCUAGUCUGCCUCUCUGGAUUCCUCGUCACUCAGCAGGGCAUCUCUGAGAGAAAUGCC [U12G A94U], the self-cleavage is 0.24.

As for UACGUAGGUGGGUUUCCCCUGAUAGUGCUAAGGGGGCCUGGAAGUUUGGACUGGGCAGAGCUCAACACAGCGUGGCAAAGUGGCUGUGGCUAGGCUGCCUCUCUGGAUUCCUCGUCACUCAGCAGGGCAUCUCUGAGAGAAAUGCC [U12G A94G], the self-cleavage was 0.42.

Turning to UACGUAGGUGGGUUUCCCCUGAUAGUGCUAAGGGGGCCUGGAAGUUUGGACUGGGCAGAGCUCAACACAGCGUGGCAAAGUGGCUGUGGCUAGACUGCCUCUCUGGAUUCCUCGUUACUCAGCAGGGCAUCUCUGAGAGAAAUGCC [U12G C116U], the self-cleavage turned out to be 0.62.

Consider UACGUAGGUGGGUUUCCCCUGAUAGUGCUAAGGGGGCCUGGAAGUUUGGACUGGGCAGAGCUCAACACAGCGUGGCAAAGUGGCUGUGGCUAGACUGCCUCUCUGGAUUCCUCGUCACUAAGCAGGGCAUCUCUGAGAGAAAUGCC [U12G C120A], for which the self-cleavage is 1.49.

Turning to UACGUAGGUGGGUUUCCCCUGAUAGUGCUAAAGGGGCCUGGAAGUUUGGACUGGGCAGAGCUCAACACAGCGUGGCAAAGUGGCUGUGGCUAGACUGCCUCUCUGGAUUCCUCGUCACUCAGCAGGGCAUCUCUGAGAGAAAUGCC [U12G G32A], the self-cleavage came to 0.78.

Regarding UACGUAGGUGGGUUUCCCCUGAUAGUGCUAAGGGGGCCUGGAAGUUUGGACUGGGCAGAGCUCAACACAGCGUGGCAAAGUGGCUGUGGCUAGACUGCCUCUCUGGAUUCCUUGUCACUCAGCAGGGCAUCUCUGAGAGAAAUGCC [U12G C113U], the self-cleavage stood at 0.66.

With UACGUAGGUGGGUUUCCCCUGAUAGUGCUAAGGGGGCCUGGAAGUUUGGACUGGACAGAGCUCAACACAGCGUGGCAAAGUGGCUGUGGCUAGACUGCCUCUCUGGAUUCCUCGUCACUCAGCAGGGCAUCUCUGAGAGAAAUGCC [U12G G55A], the self-cleavage turned out to be 0.15.

Consider UACGUAGGUGGGUUUCCCCUGAUAGUGCUAAGGGGGCCUGGAAGUUUGGACUGGGCAGAGCUCAACACAGCGUGGCAAAGUGGCUGUGGCUAGACUGCCUCUCUGGAUUCCUCGUCACUCAGCAGGGCAUCUCUGAGUGAAAUGCC [U12G A138U], for which the self-cleavage is 1.02.

Take UACGUAGGUGGGUUUCCCCUGAUAGUGCUAAGGGGGCCUGGAAGUUUGGACUGGGCAGAGCUCAACACAGCGUGGCAAAGUGGCUGUGGCUAGACUGCCUCUCUGGAUUCCUCGUCACUCAGCAGGGCAUCUCUGUGAGAAAUGCC [U12G A136U]: the self-cleavage came to 0.76.

With UACGUAGGUGGGUUUCCCCUGAUAGUGCUAAGGGGGCCUGGAAGUUUGGACUGGGCAGAGCUCAACACAGCGUGGCGAAGUGGCUGUGGCUAGACUGCCUCUCUGGAUUCCUCGUCACUCAGCAGGGCAUCUCUGAGAGAAAUGCC [U12G A77G], the self-cleavage was 1.41.

In the case of UACGUAGGUGGGUUUCCCCUGAUAGUGCUAAGGGGGCCUGGAAGUUUGGACUGGGCAGAGCUCAACACAGCAUGGCAAAGUGGCUGUGGCUAGACUGCCUCUCUGGAUUCCUCGUCACUCAGCAGGGCAUCUCUGAGAGAAAUGCC [U12G G72A], the self-cleavage came to 0.9.

UACGUAGGUGGGUUUCCCCUGAUAGUGCUAAGGGGGCCUGGAAGUUUGGACUGGGCGGAGCUCAACACAGCGUGGCAAAGUGGCUGUGGCUAGACUGCCUCUCUGGAUUCCUCGUCACUCAGCAGGGCAUCUCUGAGAGAAAUGCC [U12G A57G]: the self-cleavage came out at 1.42.

Regarding UACGUAGGUGGGUUUCCCCUGAUAGUGCUAAGGGGGCCUGGAAGUUUGGACUGGGCAGAGAUCAACACAGCGUGGCAAAGUGGCUGUGGCUAGACUGCCUCUCUGGAUUCCUCGUCACUCAGCAGGGCAUCUCUGAGAGAAAUGCC [U12G C61A], the self-cleavage amounted to 0.14.

For the variant UACGUAGGUGGGUUUCCCCUGAUAGUGCUAAGGGGGCCUGGAAGUUUGGACUGGGCAGAGCUCAACACAGCGUGGCAAAGUGGCUGUGGCUAGACUGCCUCUCUGGAUUCCUCGUCGCUCAGCAGGGCAUCUCUGAGAGAAAUGCC [U12G A117G], the self-cleavage stood at 1.35.

With UACGUAGGUGGGUUUCCCCUGAUAGUGCUAAGGGGGCCUAGAAGUUUGGACUGGGCAGAGCUCAACACAGCGUGGCAAAGUGGCUGUGGCUAGACUGCCUCUCUGGAUUCCUCGUCACUCAGCAGGGCAUCUCUGAGAGAAAUGCC [U12G G40A], the self-cleavage is 1.41.

For UACGUAGGUGGGUUUCCCCUGAUAGUGCUAAGGGGGCCUGGAAGUUUGGACUGGGCAGAGCUCGACACAGCGUGGCAAAGUGGCUGUGGCUAGACUGCCUCUCUGGAUUCCUCGUCACUCAGCAGGGCAUCUCUGAGAGAAAUGCC [U12G A64G], the self-cleavage amounted to 0.52.

For the variant UACGUAGGUGGGUUUCCCCUGAUAGUGCUAAGGGGGCCUGGAAGUUUGGACUGGGCAGAGCUCCACACAGCGUGGCAAAGUGGCUGUGGCUAGACUGCCUCUCUGGAUUCCUCGUCACUCAGCAGGGCAUCUCUGAGAGAAAUGCC [U12G A64C], the self-cleavage is 0.55.

Take UACGUAGGUGGGUUUCCCCUGAUAGUGCUAAGGGGGCCUGGAAGUUUGGACUGGGCAGUGCUCAACACAGCGUGGCAAAGUGGCUGUGGCUAGACUGCCUCUCUGGAUUCCUCGUCACUCAGCAGGGCAUCUCUGAGAGAAAUGCC [U12G A59U]: the self-cleavage was found to be 1.15.

As to UACGUAGGUGGGUUUCCCCUGAUAGUGCUAAGGGGGCCUGGAAGUUUGGACUGGGCAGAGCUCAACACAGCGUGGCAAAGUGGCUGUGGCUAGACUGCCUCUCUGGAUUCCUCGUCACUCUGCAGGGCAUCUCUGAGAGAAAUGCC [U12G A121U], the self-cleavage worked out at 1.31.

Consider UACGUAGGUGGGUUUCCCCUGAUAGUGCUAAGGGGGCCUGGAAGUUUGGACUGGGCAGAGCUCAUCACAGCGUGGCAAAGUGGCUGUGGCUAGACUGCCUCUCUGGAUUCCUCGUCACUCAGCAGGGCAUCUCUGAGAGAAAUGCC [U12G A65U], for which the self-cleavage is 0.23.
